Results reported in patent publication US20260049134A1 (UNIVERSITY OF FLORIDA RESEARCH FOUNDATION, published 2026).

T1: CADM1-His (Acro Biosystems) (human, UniProt Q9BY67 45-374)
T1 construct: Bought; also called CADM1/IGSF4A; not shown: His tag of the bought protein
T1 sequence: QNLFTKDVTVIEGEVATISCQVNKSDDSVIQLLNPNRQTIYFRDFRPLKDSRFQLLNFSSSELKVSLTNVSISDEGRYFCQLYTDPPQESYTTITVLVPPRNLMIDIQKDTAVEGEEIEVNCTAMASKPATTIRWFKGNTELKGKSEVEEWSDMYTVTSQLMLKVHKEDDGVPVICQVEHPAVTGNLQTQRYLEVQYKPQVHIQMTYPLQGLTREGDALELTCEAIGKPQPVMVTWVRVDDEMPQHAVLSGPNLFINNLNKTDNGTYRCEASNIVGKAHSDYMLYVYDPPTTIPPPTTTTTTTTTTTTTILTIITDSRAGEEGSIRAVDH

T2: GARS, endogenous in H929 multiple myeloma cells (human, UniProt P41250 37-739, limits assumed)
T2 construct: Native protein pulled down from H929 lysates; also called Glycyl-tRNA synthetase; GlyRS
T2 sequence: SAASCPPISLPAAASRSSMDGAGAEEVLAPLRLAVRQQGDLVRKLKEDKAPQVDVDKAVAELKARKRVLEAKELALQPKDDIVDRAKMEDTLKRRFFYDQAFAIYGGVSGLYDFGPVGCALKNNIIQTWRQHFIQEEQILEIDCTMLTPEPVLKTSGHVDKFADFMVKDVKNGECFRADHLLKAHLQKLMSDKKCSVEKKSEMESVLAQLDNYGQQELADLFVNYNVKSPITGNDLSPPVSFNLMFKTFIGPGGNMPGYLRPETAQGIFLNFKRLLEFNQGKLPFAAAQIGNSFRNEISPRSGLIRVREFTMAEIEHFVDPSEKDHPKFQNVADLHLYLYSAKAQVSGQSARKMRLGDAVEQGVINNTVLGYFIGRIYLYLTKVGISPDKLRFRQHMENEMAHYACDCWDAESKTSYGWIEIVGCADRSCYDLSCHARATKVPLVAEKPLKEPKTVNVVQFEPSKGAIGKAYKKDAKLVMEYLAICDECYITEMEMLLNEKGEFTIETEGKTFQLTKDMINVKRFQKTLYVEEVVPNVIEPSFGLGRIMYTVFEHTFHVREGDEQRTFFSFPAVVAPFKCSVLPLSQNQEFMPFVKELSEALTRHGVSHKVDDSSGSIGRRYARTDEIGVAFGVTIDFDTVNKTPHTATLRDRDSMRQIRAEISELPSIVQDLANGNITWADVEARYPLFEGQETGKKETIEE

T3: SELL (L-Selectin)
T3 construct: coated protein in the ELISA; also called SELL-Fc-His (R&D Systems)
T3 chain: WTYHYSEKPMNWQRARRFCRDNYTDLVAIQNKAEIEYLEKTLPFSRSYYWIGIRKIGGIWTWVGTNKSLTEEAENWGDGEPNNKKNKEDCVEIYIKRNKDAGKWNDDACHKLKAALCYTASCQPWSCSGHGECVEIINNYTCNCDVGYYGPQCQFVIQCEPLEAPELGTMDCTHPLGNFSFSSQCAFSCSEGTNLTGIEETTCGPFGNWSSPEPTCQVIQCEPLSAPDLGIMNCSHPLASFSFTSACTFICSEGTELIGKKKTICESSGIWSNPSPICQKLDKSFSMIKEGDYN

T4: SELL
T4 construct: also called SELL-Fc-His (R&D Systems); L-Selectin
T4 chain: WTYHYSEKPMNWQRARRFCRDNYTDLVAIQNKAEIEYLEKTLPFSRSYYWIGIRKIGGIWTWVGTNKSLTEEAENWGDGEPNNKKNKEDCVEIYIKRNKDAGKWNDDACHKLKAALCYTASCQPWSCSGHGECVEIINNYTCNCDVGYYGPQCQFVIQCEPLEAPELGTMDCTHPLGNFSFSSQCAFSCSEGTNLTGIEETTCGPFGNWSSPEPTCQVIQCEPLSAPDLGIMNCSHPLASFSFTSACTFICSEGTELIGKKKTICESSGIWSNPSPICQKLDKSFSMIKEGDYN

T5: HHLA2
T5 construct: also called HHLA2-Fc (R&D Systems); B7-H7; not shown: Fc part and any linker
T5 chain: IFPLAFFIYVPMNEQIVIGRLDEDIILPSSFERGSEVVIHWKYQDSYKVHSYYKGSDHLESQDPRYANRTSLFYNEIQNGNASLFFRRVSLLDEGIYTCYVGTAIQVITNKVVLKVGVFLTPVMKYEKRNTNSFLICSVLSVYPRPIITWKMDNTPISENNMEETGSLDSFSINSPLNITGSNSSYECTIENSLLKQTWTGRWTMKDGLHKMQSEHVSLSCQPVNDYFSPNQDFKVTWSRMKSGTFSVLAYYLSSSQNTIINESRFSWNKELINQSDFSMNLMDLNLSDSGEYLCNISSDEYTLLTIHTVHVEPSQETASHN


Key:
[1] = biological target: T1, CADM1-His (Acro Biosystems); experiment: ELISA on coated CADM1-His
Procedure: (§1) Recombinant purified ECDs (50-150 ng) of each putative target protein were coated, incubated with 150 ng of the indicated primary antibody, and binding was detected using a peroxidase-conjugated anti-human Fab secondary antibody. Heatmap represents averages of technical triplicates. (8B) Target validation via siRNA knockdown. H929 cells were transfected with siRNA pools targeting the putative antibody targets ICAM1, CADM1, and PTPRG. Cells were then subjected to cognate IgG binding analysis via flow cytometry. (NT, non-targeting siRNA).
(§2) ELISA ELISA was conducted as described previously. Briefly, 50-150 ng of antigen was coated overnight in half-area 96-well plates at 4° C., blocked with 3% BSA at 37° C. for 1 h, and 150 ng of chimeric rabbit/human IgG1 was added, incubating for 2 h at 37° C. […] After incubating at 37° C. for 15 min-1 h (depending on intensity of controls), data were acquired using a SpectraMax M5 plate reader (Molecular Devices).

[2] = biological target: T2, GARS, endogenous in H929 multiple …; experiment: flow cytometry, H929 + vehicle; None 513; surface target GARS putative
[3] = biological target: T2, GARS, endogenous in H929 multiple …; experiment: flow cytometry, H929 + ICAM1 siRNA; None 1.06; surface target GARS putative
[4] = biological target: T2, GARS, endogenous in H929 multiple …; experiment: flow cytometry, H929 + PTPRG siRNA; None 2.13; surface target GARS putative
[5] = biological target: T2, GARS, endogenous in H929 multiple …; experiment: flow cytometry, H929 + GARS siRNA (siRNA against the putative target); None 0.2
[6] = biological target: T3, SELL (L-Selectin); experiment: ELISA on coated SELL-Fc-His
Procedure: as §1, §2

[7] = biological target: T4, SELL; experiment: ELISA on coated protein
Procedure: as §1, §2

[8] = biological target: T5, HHLA2; experiment: ELISA on coated protein
Procedure: as §1, §2

Binder | binding result [1] | mAb binding (MFI) [2] | Cells stained (%) [3] [%] | Cells stained (%) [4] [%] | Cells stained (%) [5] [%] | binding result [6] | binding result [7] | binding result [8]
HW-56 chimeric rabbit-human IgG1 LA/LA/PG (antibody, V domains shown, Fc-silenced (L234A/L235A/P329G) IgG1, kappa; Alexa Fluor 647-labeled in single-step flow cytometry; Cluster C-45) VH: QSVKESEGGLFKPTDTLTLTCTASGFTVSTNAVTWVRQAPGNGLEYIGTIGRSGSAYFASWAKRRSTLTRDINLNTVTLKMTSLTAADTATYFCVRGSPGYRTAISIWGPGTLVTISS VL: AVMTQTPSSTSAAVEGTVTINCQASQSISNRLSWFQQKPGQPPKLLIYQASTLASGVPSRFKGSGSGTEFTLTISGVQREDAATYYCLGSYSSSDASFGGGTKLEIKR | no binding (tested: 150 ng IgG1 per well) | 481000 | 99.2 | 99.8 | 99.9 |  |  | 
TH9-0022 (antibody, human IgG1, kappa, L234A L235A, V domains shown, also called TH9-022; negative control) VH: QSLEESGGRLVTPGTPLTLTCTVSGFSLSSYAMNWVRQAPGKGLEWIGIINSYGSTYYASWAKGRFTISKTSTTVDLKITSPTTEDTATYFCARVTYDSYGYGYAPYGMDLWGPGTLVTVSS VL: LVMTQTPSSTSNAVGGTVTIKCQASQSIGNVLAWYQQKPGQPPKLLIYAASTLASGVPSRVGGSRSGTEYTLTISGVQREDAATYYCLGSDSDSDIAFGGGTELEILR | no binding (tested: 150 ng IgG1 per well) |  |  |  |  | no binding (tested: 150 ng IgG1 per well) |  | 
HW-16 chimeric rabbit-human IgG1 LA/LA/PG (antibody, V domains shown, Fc-silenced (L234A/L235A/P329G) IgG1, kappa; Alexa Fluor 647-labeled in single-step flow cytometry; Cluster C-45) VH: QSLEESGGRLVTPGTPLTLTCTASGFSLSSYAMSWVRQAPGKGLEWIGTMPTGGGTYYASWAKGRFTISKTSTTVDLQITSPTTEDTATYFCAKHWNIWGPGTLVTISS VL: DIVLTQTPSSTSTAVGDTVTINCRASQSIGRNLAWFQQKPGQPPKLLIYRASNLASGVPSRFKGSGSRTQFTLTISGVQREDAATYYCLGSYSSSDTAFGGGTELEILR | no binding (tested: 150 ng IgG1 per well) | 61100 | 98.1 | 98.2 | 99.1 |  |  | 
HW-8 chimeric rabbit-human IgG1 LA/LA/PG (antibody, V domains shown, Fc-silenced (L234A/L235A/P329G) IgG1, kappa; Alexa Fluor 647-labeled in single-step flow cytometry; Cluster C-45) VH: QSLEESGGRLVTPGTPLTLTCTVSGFSLSSYAMSWVRQAPGKGLEWIGAISTGGSTTYASWAKGRFTISKTSSTTVDLKMTSLTTEDTATYFCVRHFRLWGPGTLVTISS VL: QVLTQTPSSVSAAVGGTVTIKCQASQSIGSALAWFQQKPGQRPKLLIYRASNLASGVPSRFKGSGSGTEFALTISGVQREDAATYYCLGGAAAVWAFGAGTNVEIKR |  | 16700 | 76.3 | 84.3 | 99 | no binding (tested: 150 ng IgG1 per well) | no binding (tested: 150 ng IgG1 per well) | no binding (tested: 150 ng IgG1 per well)
HW-42 chimeric rabbit-human IgG1 LA/LA/PG (antibody, V domains shown, Fc-silenced (L234A/L235A/P329G) IgG1, lambda; Alexa Fluor 647-labeled in single-step flow cytometry; Cluster C-1) VH: QSVKESEGGLFKPADTLTLTCTVSGFSLSSNEISWVRQAPGEGLEYIGIIDTGGRAYYAVWARSRSTITRNTNLNTVTLKMTSLTAADTATYFCARGGVDTEWYAFSSWGPGTLVTVPS VL: SFVLTQPASVQVNLGQTVSLTCTADTLSRRYASWYQQKPGQAPVLLIFRDTSRPSGVPDRFSGSSSGDTATLTISGAQAGDEADYYCATSDGSGSNYQYVFGGGTQLTVTG | no binding (tested: 150 ng IgG1 per well) |  |  |  |  | no binding (tested: 150 ng IgG1 per well) | no binding (tested: 150 ng IgG1 per well) | no binding (tested: 150 ng IgG1 per well)
HW-70 chimeric rabbit-human IgG1 LA/LA/PG (antibody, V domains shown, Fc-silenced (L234A/L235A/P329G) IgG1, lambda; Alexa Fluor 647-labeled in single-step flow cytometry; Cluster C-1) VH: QSLEESGGRLVTPGTPLTLTCTVSGFSLSSNAMSWVRQAPGKGLEWIGTIDGYGYTYYASWAKGRFTVSKTSTTVDLKITSPTTEDTATYFCAREIYLGSNFWGPGTLVTISS VL: SFVLTQPASVQVNLGQTVSLTCTADTLSRRYASWYQQKPGQAPVLLIYRDTSRPSGVPDRFSGSSSGNTATLTISGAQAGDEADYYCATADGSGSSYQFVFGGGTQLTVTG | no binding (tested: 150 ng IgG1 per well) |  |  |  |  | no binding (tested: 150 ng IgG1 per well) | no binding (tested: 150 ng IgG1 per well) | no binding (tested: 150 ng IgG1 per well)
HW-25 chimeric rabbit-human IgG1 LA/LA/PG (antibody, V domains shown, Fc-silenced (L234A/L235A/P329G) IgG1, lambda; Alexa Fluor 647-labeled in single-step flow cytometry; Cluster C-1) VH: QSLEESGGRLVTPGTPLTLTCTVSGFSLSSYAMGWVRQAPGKGLEWIGIIDSRGSTYYATWAKGRFTISKTSTTVDLKITSPTTEDTATYFCAREDSYYYDSFNLWGPGTLVTVSS VL: SFVLTQPASVQVNLGQTVSLTCTADTLSRRYASWYQQKPGQAPVLLIYRDTSRPSGVPDRFSGSSSGNTATLTISGAQAGDEADYYCATSDGSGSSYQCVFGGGTQLTVTG | no binding (tested: 150 ng IgG1 per well) |  |  |  |  | no binding (tested: 150 ng IgG1 per well) | no binding (tested: 150 ng IgG1 per well) | no binding (tested: 150 ng IgG1 per well)
HW-28 chimeric rabbit-human IgG1 LA/LA/PG (antibody, V domains shown, Fc-silenced (L234A/L235A/P329G) IgG1, lambda; Alexa Fluor 647-labeled in single-step flow cytometry; Cluster C-45) VH: QKQLVESGGRLVTPGTPLTLTCTASGFSLSSNAMSWVRQAPGEGLQWIGTISSGGSTYYASWAKGRFTISKTSTTVTLKMTSLTTEDTATYFCARGADLHRLWGPGTLVTVSS VL: SFVLTQPASVQVNLGQTVSLTCTGKPLSRSFASWYQQKPGQAPVLVIYRDTSRPSGVPDRFSGSSSGNTATLTISGAQAGDEADYYCATSDGSGSSYQYVFGGGTQLTVTG |  | 44400 | 96.9 | 98.6 | 98.3 |  |  | 
HW-45 chimeric rabbit-human IgG1 LA/LA/PG (antibody, V domains shown, Fc-silenced (L234A/L235A/P329G) IgG1, lambda; Alexa Fluor 647-labeled in single-step flow cytometry; Prototype of cluster C-45) VH: QKQLVESGGRLVTPGTPLTLTCTVSGFSLSSYAMGWFRQAPGKGLEWIGIINSYGSTYYASWAKGRFTISKTSTTVDLKITSPTTEDTATYFCGRRIGSARFDPWGPGTLVTVSS VL: SFVLTQPASVQVNLGQTVSLTCTADTLSRSYASWYQQKPGQAPVLLIYRDTRRPSGVPDRFSGSSSGNTATLTISGAQAGDEADYYCATSDGSGSSYRLVFGGGTQLTVTG |  | 25400 | 95.1 | 97.3 | 98.5 |  |  | 
